Assay results taken from patent US20180066068A9, “ANTI-PSYK ANTIBODY MOLECULES AND USE OF SAME FOR SYK-TARGETED THERAPY” (Millennium Pharmaceuticals, Inc., priority 2014, published 2018).

Legend:
[1] = system: DLBCL cell lines; assay: Inhibition of cellular proliferation; assay type: cell-based; conditions: expanded set of relevant models; 72 hours of treatment, DLBCL cell lines (FIG. 21)
[2] = system: pSYK in TMD8 lymphoma cell line xenograft; assay: Pharmacodynamics by IHC in TMD8 xenografts; assay type: in vivo, mice; conditions: single oral dose 120 mg/kg, two hours after dosing; MIL81-1-8 hybridoma and molecular clone antibodies
[3] = system: pSYK, pBLNK, cleaved caspase 3 in PHTX-95L primary DLBCL xenografts; assay: Pharmacodynamics by IHC in PHTX-95L xenografts; assay type: in vivo, NOD SCID mice
[4] = target: T1, phosphatase-treated GST-pSYK (de-pSYK) (Homo sapiens, UniProt P43405); assay: Western blot on phosphatase-treated GST-pSYK; assay type: binding; conditions: GST-tagged recombinant SYK
T1 construct: made in house; host or cells: baculovirus-infected Sf9 cells
Method: Some of the autophosphorylated GST-pSYK was treated with T-cell protein phosphatase (TC-PTP, New England Biolabs), a tyrosine-specific phosphatase, for confirming specificity of antibodies to pSYK.
(§1) Western blots were prepared from SDS-PAGE gels of GST-pSYK (IVK), and phosphatase-treated GST-pSYK. Each hybridoma multiclone supernatant was tested for binding to the blots. […] By this method, multiclone hybridoma supernatants with good binding of phosphorylated relative to dephosphorylated pSYK were 1, 2, 19, 24, 39, 49, 52, 53, 55, 59, 63, 70, 81, 84, 85, 87, 98 and 99.

[5] = target: T2, pSYK in human DLBCL biopsies (Homo sapiens, UniProt P43405); assay: IHC of human DLBCL biopsies, AMP HQ versus Leica IHC; assay type: binding
T2 construct: from tissue; host or cells: FFPE human DLBCL biopsies; one normal lymph node
Method: Antibodies were incubated with OmniMap goat anti-rabbit HRP secondary antibody (Ventana Medical Systems) for 16 minutes. A Discovery AMP TSA HQ kit (Ventana Medical Systems) was applied for 16 minutes followed by 16 minute incubation with the Discovery anti-HQ HRP (Ventana Medical Systems) antibody. The staining was then developed with the 3,3′-diaminobexidine (DAB) substrate map system. Slides were counterstained with hematoxylin and imaged using the Aperio whole slide scanning system (XT). A comparative staining was obtained with the MIL81-1-8 3H3/3L2 antibody using an automated protocol on a Leica automated stainer. pSYK protein levels in Formalin-Fixed, Paraffin-Embedded tissues were incubated with MIL81-1-8 3H3/3L2 antibody ([…]) for 30 minutes on the Leica Microsystems (Wetzlar, Germany) BOND RX automated stainer. Antibodies were incubated with a rabbit anti-goat HRP secondary antibody (Leica Laboratories) and developed with the 3,3′-diaminobexidine (DAB) substrate map system. Slides were counterstained with hematoxylin and imaged using the Aperio whole slide scanning system (XT). The staining of the AMP HQ and the Leica IHC were compared to determine staining specificity. […] Each was scored either positive (membrane stain was found) or negative (no membrane staining was found). […]

[6] = target: T3, GST-pSYK (IVK) (Homo sapiens, UniProt P43405); assay: Western blot on autophosphorylated GST-pSYK (IVK); assay type: binding; conditions: GST-tagged recombinant SYK, compared with untreated
T3 construct: made in house; host or cells: baculovirus-infected Sf9 cells
Method: GST-hSYK was expressed in baculovirus-infected Sf9 cells and affinity-purified by glutathione Sepharose affinity resin. For in vitro kinase (IVK) pSYK, isolated GST-SYK was incubated in 1 mM ATP, 1 mM MgCl2 for 1 hr at room temperature to allow autophosphorylation to occur. The reaction was stopped by the addition of 5 mM EDTA and a small aliquot removed for treatment with 0.1% SDS, stored […] and used for AlphaScreen analysis or stored at −80° without further purification. This sample was later used at Epitomics for screening assays of hybridoma. An aliquot of the sample was analyzed by SDS-PAGE for Western blotting using anti-SYK (Cell Signaling Technologies #2712) and Epitomics 2175-1. The majority of the recombinant material was confirmed to be phosphorylated at Y525/526.
as §1

[7] = target: T4, SYK in lysates of WSU-DLCL2 cells (Homo sapiens, UniProt P43405); assay: Western blot of cell lysates, WSU-DLCL2; assay type: binding; conditions: lysate of stimulated cells
T4 construct: endogenous in cells; host or cells: WSU-DLCL2 cells, unstimulated or stimulated (BCR crosslinking or pervanadate)
Method: Additional cell culture material was used to screen antibodies by utilizing WSU-DLCL2 (human diffuse large B-cell lymphoma) cells that were stimulated through crosslinking the B-cell receptor (AffiniPure F(ab′)^2 fragment of goat anti-human Ig, cat #109-006-127, JacksonImmuno Research Laboratories, Inc., West Grove, Pa.) or with pervanadate treatment (25 μL into 1 mL of cells of the following; 50 μL Na3VO4, 5.5 μL 9.1M H2O2(31%), 944.5 μl H2O) over a 60 min time course. At each time point cells were collected and lysed in MPER (Thermo: 7850) containing both a protease inhibitor cocktail I (Calbiochem:539131-10VL) and 1× HALT a generic protein phosphatase inhibitor cocktail (Thermo: 78428). Also LY10 (OCI-LY10) cells were used as lysates without or with stimulation with cross-linking or pervanadate as described above. Ly10 cells have weak SYK expression compared to WSUDLCL2 cells (FIG. 1). […] (BLNK was detected in every sample by CST 3575 and SC15345 antibodies, with the pBLNK detection paralleling the pSYK detection in the crosslinked and pervanadate-treated cells.) One conclusion of this study extended the nucleic acid results, and found weak pSYK signal in the Ly10 crosslinked sample. […]

[8] = target: T5, pSYK in DLBCL patient samples and normal lymph node (Homo sapiens, UniProt P43405); assay: IHC of molecular clone versus hybridoma antibody on human biopsies; assay type: binding
T5 construct: from tissue; host or cells: FFPE human DLBCL biopsies; one normal lymph node
Method: The molecular clone antibody also was assessed by IHC. The immunohistochemical staining of antibody purified from MIL81-1-8 hybridoma supernatant as described above was compared to staining by MIL81-1-8 3H3/3L2 clone antibody purified from culture supernatant of transiently co-transfected HEK293 cells (also one-step purification-protein A chromatography followed by buffer exchange).
Both the molecular clone and the hybridoma antibodies stained HBL1 to a moderate extent and strongly stained PHTX95L untreated samples. […] The molecular clone antibody was compared to the hybridoma antibody for staining biopsies of human tissues. There were three DLBCL patient samples and one normal lymph node sample (non-tumorigenic) from a patient. […] If nuclear staining would be considered off-target and lead to a determination of absence of pSYK, then a version of MIL81-1-8, with less nuclear relative to cytoplasmic or membranous staining could lead to fewer false negative results.

[9] = single dose 120 mg/kg, IHC of tumors harvested over time

Western blot staining of phosphatase-treated recombinant SYK [4]	Samples deemed positive (membrane stain) out of 82 ([5]; AMP HQ amplified IHC, 1:10,000 dilution)	Samples deemed positive (membrane stain) out of 82 ([5]; Leica IHC, 1:3200 dilution)	Binding to SYK on western blot, stimulated WSU-DLCL2 cells [7]	Nuclear staining intensity compared to hybridoma antibody ([8]; human biopsies)	Molecule	EC50 [1]	pSYK stain in TMD8 xenograft after treatment [2]	cleaved caspase 3 expression [3, 9]	pBLNK (pBLNK65) expression time course [3, 9]	pSYK (pSYK525) expression time course [3, 9]	pSYK stain in PHTX95L xenograft after treatment ([3]; single oral dose 120 mg/kg, two hours after dosing, MIL81-1-8 hybridoma and molecular clone antibodies)	Western blot staining of IVK-treated recombinant SYK [6]	Overall IHC comparison with hybridoma antibody ([8]; cell pellets, xenografts and human biopsies)
–	–	–	–	–	Cn1cc(-c2nc(N[C@@H]3CCCC[C@@H]3N)c(F)c3c2C(=O)NC3)cn1 [Compound A, 6-((1R,2S)-2-Aminocyclohexylamino)-7-fluoro-4-(1-methyl-1H-pyrazol-4-yl)-1H-pyrrolo[3,4-c]pyridin-3(2H)-one]	25 to 4000 nM	diminished	increase in expression	Time dependent inhibition	Time dependent inhibition	diminished	–	–
slightly stained	34	24	stained the band	remarkably reduced	MIL81-1-8 3H3/3L2: recombinant molecular clone of MIL81-1-8; heavy chain SEQ ID NO:4, light chain SEQ ID NO:6, from transfected HEK293 cells (antibody) heavy: METGLRWLLLVAVLKGVQCQSVEESGGRLVTPGTPLTLTCTVSGIDLNSYIMSWVRQAPGKGLEWIGIISRRGNTYYASWPKGRFTISKTSTTVDLKITSPTTEDTATYFCARAYLYTSGTMSVWGPGTLVTVSSGQPKAPSVFPLAPCCGDTPSSTVTLGCLVKGYLPEPVTVTWNSGTLTNGVRTFPSVRQSSGLYSLSSVVSVTSSSQPVTCNVAHPATNTKVDKTVAPSTCSKPTCPPPELLGGPSVFIFPPKPKDTLMISRTPEVTCVVVDVSQDDPEVQFTWYINNEQVRTARPPLREQQFNSTIRVVSTLPIAHQDWLRGKEFKCKVHNKALPAPIEKTISKARGQPLEPKVYTMGPPREELSSRSVSLTCMINGFYPSDISVEWEKNGKAEDNYKTTPAVLDSDGSYFLYSKLSVPTSEWQRGDVFTCSVMHEALHNHYTQKSISRSPGK light: MDTRAPTQLLGLLLLWLPGARCADIVMTQTPSPVEAAVGGTVTIKCQASESISSYLSWYQQKPGQPPKLLIYRASTLVSGVPSRFKGSGSGTDFTLTISDLECADAATYYCQHTYFGSDYVGGFGGGTEVVVKGDPVAPTVLIFPPAADQVATGTVTIVCVANKYFPDVTVTWEVDGTTQTTGIENSKTPQNSADCTYNLSSTLTLTSTQYNSHKEYTCKVTQGTTSVVQSFNRGDC	–	–	–	–	–	–	stained the IVK-treated SYK band more intensely than the untreated SYK band	slightly better than the hybridoma antibody
